Assay results from patent US20250320305A1 (Hoffmann-La Roche, published 2025).
Each block holds one binder with its values, some of them ahead of it.

Columns and labels:
[1] = target: T1, human CD40 expressed on cells (human, UniProt P25942 21-277); test: cell-based or functional assay
[2] = target: T2, human Fibroblast Activation Protein (FAP) expressed on cells (human, UniProt Q12884 1-760); test: flow cytometry, NIH/3T3-huFAP cells
T2 construct: Cell-surface human FAP on transfected HEK or NIH/3T3 cells; also called huFAP; human FAP-transfected HEK cells
Method: (§1) Plates were centrifuged 5 minutes at 1700 rpm and supernatants were flicked off. […] All samples were resuspended in 50 μL/well of 4° C. cold FACS buffer containing the bispecific antigen binding molecules (primary antibody) or the isotype control antibody DP47 at the indicated range of concentrations (in duplicates) and incubated for 120 minutes at 4° C. Afterwards the cells were washed three times with 200 μL 4° C. cold FACS buffer. […] Data analysis was performed using the FlowJo version 10 software (FlowJo LLC).

[3] = target: T1, human CD40 expressed on cells; test: flow cytometry, primary human B cells
Method: as §1

[4] = target: T3, His-tagged human FAP ectodomain (human, UniProt Q12884 27-760); test: SPR, His-tagged human FAP ectodomain as ligand
T3 construct: also called hu FAP ectodomain+poly-lys-tag+his6-tag; His-tagged FAP antigen

[5] = target: T2, human Fibroblast Activation Protein …; test: flow cytometry, huFAP-transfected HEK cells
Method: (§2) The binding of anti-FAP antibodies with a human IgG1 P329G LALA Fc to human FAP was determined by flow cytometry using human FAP-transfected HEK cells. Briefly, the target cells were harvested with Cell Dissociation buffer, washed with FACS Buffer (PBS+2% FCS+5 mM EDTA+0.25% sodium acide) and seeded into 96-U bottom plates (1×10^5 cells/well). Unlabeled primary antibodies were added to the cells (final concentrations 10 μg/ml to 0.64 ng/ml; 1:5 dilutions) and incubated for 30 min at 4° C. After washing, cells were incubated with a PE-conjugated AffiPure F(ab)₂ Fragment Goat anti-human IgG, Fc□ specific (Jackson Immunoresearch) for 30 min at 4° C. in the dark. Afterwards, cells were washed, fixed and measured using a BD FACS LSR Fortessa™.

[6] = target: T4, biotinylated recombinant human FAP (human, UniProt Q12884 26-760, biotinylated); test: SPR (Biacore), biotinylated recombinant human FAP
T4 construct: also called biotinylated human FAP

[7] = target: T4, biotinylated recombinant human FAP; test: SPR (Biacore), biotinylated huFAP on CAPture chip, Fab analyte
Method: As running and dilution buffer, HBS-P+ (10 mM HEPES, 150 mM NaCl pH 7.4, 0.05% Surfactant P20) was used. A dilution series of anti-huFAP Fabs (3.7-300 nM, 1:3 dilution) was successively injected for 120 s each, dissociation was monitored for 1800 s at a flow rate of 30 μl/min (single cycle kinetics). The surface was regenerated by injecting 6 M guanidine-HCl, 0.25 M NaOH for 120 s. Bulk refractive index differences were corrected by subtracting blank injections and by subtracting the response obtained from the control flow cell without captured human FAP. Curve fitting was performed using the 1:1 Langmuir binding model within the Biacore evaluation software.

[8] = target: T5, cynomolgus FAP expressed on cells (cynomolgus); test: flow cytometry, cells expressing cynomolgus FAP
T5 construct: whole, on cells

[9] = target: T2, human Fibroblast Activation Protein …; test: flow cytometry, human FAP-transfected HEK cells
Method: as §2

[10] = target: biotinylated recombinant cynomolgus FAP (cynomolgus); test: SPR (Biacore), biotinylated recombinant cynomolgus FAP
[11] = target: T6, human DPP-IV expressed on transfected HEK cells (human, UniProt P27487 1-766); test: flow cytometry, human DPPIV-transfected HEK cells
T6 construct: whole, on cells; also called dipeptidyl peptidase IV
T6 sequence (P27487 whole entry): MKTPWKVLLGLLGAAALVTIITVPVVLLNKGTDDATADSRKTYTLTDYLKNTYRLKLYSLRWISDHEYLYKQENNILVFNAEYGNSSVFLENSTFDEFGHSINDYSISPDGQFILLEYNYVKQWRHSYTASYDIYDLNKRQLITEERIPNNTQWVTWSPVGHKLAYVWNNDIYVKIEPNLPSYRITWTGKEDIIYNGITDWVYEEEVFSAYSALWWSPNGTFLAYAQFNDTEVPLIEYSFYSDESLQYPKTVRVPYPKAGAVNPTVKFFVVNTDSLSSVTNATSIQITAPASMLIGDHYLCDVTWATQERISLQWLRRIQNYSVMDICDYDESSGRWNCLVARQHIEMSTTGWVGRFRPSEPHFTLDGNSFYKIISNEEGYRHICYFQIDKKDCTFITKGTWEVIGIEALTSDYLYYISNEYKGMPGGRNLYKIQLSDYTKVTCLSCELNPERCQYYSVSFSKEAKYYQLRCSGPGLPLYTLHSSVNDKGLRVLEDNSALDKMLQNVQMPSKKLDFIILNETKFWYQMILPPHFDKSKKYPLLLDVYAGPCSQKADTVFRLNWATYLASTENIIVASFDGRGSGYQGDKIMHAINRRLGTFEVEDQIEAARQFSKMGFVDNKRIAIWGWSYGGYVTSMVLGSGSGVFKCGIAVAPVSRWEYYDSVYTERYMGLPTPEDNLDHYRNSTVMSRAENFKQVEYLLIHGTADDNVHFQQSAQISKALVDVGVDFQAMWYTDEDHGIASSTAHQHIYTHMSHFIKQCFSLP
Method: Binding to human FAP and human DPP-IV was determined by flow cytometry using human FAP or human DPPIV-transfected HEK cells. Briefly, the target cells were harvested with Cell Dissociation buffer, washed with FACS Buffer (PBS+2% FCS+5 mM EDTA+0.25% sodium acide) and seeded into 96-U bottom plates (1×10⁵ cells/well). Unlabeled primary antibodies were added to the cells (final concentration 10 μg/ml) and incubated for 30 min at 4° C. After washing, cells were incubated with a goat anti-mouse IgG-PE F(ab′)₂ (Serotec) for 30 min at 4° C. in the dark. Afterwards, cells were washed, fixed and measured using a BD FACS Canto™ II.

B1: P1AE2423, CD40 (P1AE0817) x FAP (P1AE1689) (2+1) C-terminal crossfab fusion (bispecific antibody, human IgG1, kappa, L234A L235A)
light 1: QVQLVQSGAEVKKPGASVKVSCKASGYTLTDYNMDWVRQAPGQGLEWIGDIYPNTGGTIYNQKFKGRVTMTIDTSTSTVYMELSSLRSEDTAVYYCTRFRGIHYAMDYWGQGTTVTVSSASVAAPSVFIFPPSDEQLKSGTASVVCLLNNFYPREAKVQWKVDNALQSGNSQESVTEQDSKDSTYSLSSTLTLSKADYEKHKVYACEVTHQGLSSPVTKSFNRGEC
light 2: DIVMTQTPLSLSVTPGQPASISCRSSQSLVHSNGNTFLHWYLQKPGQSPQLLIYTVSNRFSGVPDRFSGSGSGTDFTLKISRVEAEDVGVYFCSQTTHVPWTFGGGTKVEIKRTVAAPSVFIFPPSDRKLKSGTASVVCLLNNFYPREAKVQWKVDNALQSGNSQESVTEQDSKDSTYSLSSTLTLSKADYEKHKVYACEVTHQGLSSPVTKSFNRGEC
heavy 1: not shown
heavy 2: QVQLVQSGAEVKKPGASVKVSCKASGYSFTGYYIHWVRQAPGQSLEWMGRVIPNAGGTSYNQKFKGRVTLTVDKSISTAYMELSRLRSDDTAVYYCAREGIYWWGQGTTVTVSSASTKGPSVFPLAPSSKSTSGGTAALGCLVEDYFPEPVTVSWNSGALTSGVHTFPAVLQSSGLYSLSSVVTVPSSSLGTQTYICNVNHKPSNTKVDEKVEPKSCDKTHTCPPCPAPEAAGGPSVFLFPPKPKDTLMISRTPEVTCVVVDVSHEDPEVKFNWYVDGVEVHNAKTKPREEQYNSTYRVVSVLTVLHQDWLNGKEYKCKVSNKALGAPIEKTISKAKGQPREPQVCTLPPSRDELTKNQVSLSCAVKGFYPSDIAVEWESNGQPENNYKTTPPVLDSDGSFFLVSKLTVDKSRWQQGNVFSCSVMHEALHNHYTQKSLSLSPG
notes: bivalent for CD40, monovalent for FAP; also called VL-CH1 fused to Fc
EC50, two cell line bridging assay (SEAP of HEK-Blue CD40L reporter cells with FAP-expressing WM-266-4 cells) [1]: 3.2 pM
EC50 [2]: 5190 pM
EC50 [3]: 95 pM
Kd [4]: 94 pM
koff [4]: 3.2e-05 s⁻¹
kon [4]: 340000 M⁻¹ s⁻¹

B3: P1AE2302, CD40 (P1AE0817) x FAP (28H1) (2+1) C-terminal crossfab fusion (bispecific antibody, human IgG1, kappa, L234A L235A)
light 1: EVQLLESGGGLVQPGGSLRLSCAASGFTFSSHAMSWVRQAPGKGLEWVSAIWASGEQYYADSVKGRFTISRDNSKNTLYLQMNSLRAEDTAVYYCAKGWLGNFDYWGQGTLVTVSSASVAAPSVFIFPPSDEQLKSGTASVVCLLNNFYPREAKVQWKVDNALQSGNSQESVTEQDSKDSTYSLSSTLTLSKADYEKHKVYACEVTHQGLSSPVTKSFNRGEC
light 2: DIVMTQTPLSLSVTPGQPASISCRSSQSLVHSNGNTFLHWYLQKPGQSPQLLIYTVSNRFSGVPDRFSGSGSGTDFTLKISRVEAEDVGVYFCSQTTHVPWTFGGGTKVEIKRTVAAPSVFIFPPSDRKLKSGTASVVCLLNNFYPREAKVQWKVDNALQSGNSQESVTEQDSKDSTYSLSSTLTLSKADYEKHKVYACEVTHQGLSSPVTKSFNRGEC
heavy 1: not shown
heavy 2: QVQLVQSGAEVKKPGASVKVSCKASGYSFTGYYIHWVRQAPGQSLEWMGRVIPNAGGTSYNQKFKGRVTLTVDKSISTAYMELSRLRSDDTAVYYCAREGIYWWGQGTTVTVSSASTKGPSVFPLAPSSKSTSGGTAALGCLVEDYFPEPVTVSWNSGALTSGVHTFPAVLQSSGLYSLSSVVTVPSSSLGTQTYICNVNHKPSNTKVDEKVEPKSCDKTHTCPPCPAPEAAGGPSVFLFPPKPKDTLMISRTPEVTCVVVDVSHEDPEVKFNWYVDGVEVHNAKTKPREEQYNSTYRVVSVLTVLHQDWLNGKEYKCKVSNKALGAPIEKTISKAKGQPREPQVCTLPPSRDELTKNQVSLSCAVKGFYPSDIAVEWESNGQPENNYKTTPPVLDSDGSFFLVSKLTVDKSRWQQGNVFSCSVMHEALHNHYTQKSLSLSPG
EC50, two cell line bridging assay (SEAP of HEK-Blue CD40L reporter cells with FAP-expressing WM-266-4 cells) [1]: 2.5 pM

B5: P1AA9663, CD40 (huCD40) x FAP (28H1) (2+2) C-terminal crossfab fusion (bispecific antibody, human IgG1, kappa, L234A L235A)
light 1: EVQLLESGGGLVQPGGSLRLSCAASGFTFSSHAMSWVRQAPGKGLEWVSAIWASGEQYYADSVKGRFTISRDNSKNTLYLQMNSLRAEDTAVYYCAKGWLGNFDYWGQGTLVTVSSASVAAPSVFIFPPSDEQLKSGTASVVCLLNNFYPREAKVQWKVDNALQSGNSQESVTEQDSKDSTYSLSSTLTLSKADYEKHKVYACEVTHQGLSSPVTKSFNRGEC
light 2: DIQMTQSPSSLSASVGDRVTITCRSSQSLVHSNGNTFLHWYQQKPGKAPKLLIYTVSNRFSGVPSRFSGSGSGTDFTLTISSLQPEDFATYFCSQTTHVPWTFGQGTKVEIKRTVAAPSVFIFPPSDRKLKSGTASVVCLLNNFYPREAKVQWKVDNALQSGNSQESVTEQDSKDSTYSLSSTLTLSKADYEKHKVYACEVTHQGLSSPVTKSFNRGEC
heavy: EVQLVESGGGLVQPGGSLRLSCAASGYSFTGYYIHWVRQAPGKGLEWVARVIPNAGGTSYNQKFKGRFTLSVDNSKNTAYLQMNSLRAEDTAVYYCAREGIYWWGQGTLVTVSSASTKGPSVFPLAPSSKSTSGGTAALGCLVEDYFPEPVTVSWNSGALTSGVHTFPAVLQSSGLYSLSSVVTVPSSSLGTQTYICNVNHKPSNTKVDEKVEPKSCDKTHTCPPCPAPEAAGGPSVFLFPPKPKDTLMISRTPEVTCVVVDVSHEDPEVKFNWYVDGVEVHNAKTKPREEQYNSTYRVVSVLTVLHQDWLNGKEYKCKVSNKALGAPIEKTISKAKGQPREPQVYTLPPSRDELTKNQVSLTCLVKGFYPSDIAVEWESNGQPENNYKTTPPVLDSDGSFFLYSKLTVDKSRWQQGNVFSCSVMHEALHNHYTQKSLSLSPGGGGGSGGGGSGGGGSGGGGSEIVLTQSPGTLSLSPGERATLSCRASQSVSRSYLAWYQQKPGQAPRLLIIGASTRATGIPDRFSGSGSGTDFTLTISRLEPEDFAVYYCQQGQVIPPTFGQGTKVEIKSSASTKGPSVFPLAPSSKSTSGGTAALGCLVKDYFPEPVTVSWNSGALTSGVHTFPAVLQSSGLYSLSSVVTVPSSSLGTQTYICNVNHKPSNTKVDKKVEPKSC
EC50, two cell line bridging assay (SEAP of HEK-Blue CD40L reporter cells with FAP-expressing WM-266-4 cells) [1]: 13.2 pM

B6: P1AD9438_Fab (clone 212 Fab) (Fab, V domains shown)
VH: EVLLQQSGPELVKPGASVKIACKASGYTLTDYNMDWVRQSHGKSLEWIGDIYPNTGGTIYNQKFKGKATLTIDKSSSTAYMDLRSLTSEDTAVYYCTRFRGIHYAMDYWGQGTSVTVSS
VL: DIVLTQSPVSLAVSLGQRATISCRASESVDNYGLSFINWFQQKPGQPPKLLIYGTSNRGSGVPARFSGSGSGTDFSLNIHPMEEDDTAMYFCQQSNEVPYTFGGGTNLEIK
notes: Fab
Kd [6]: 120 pM
Kd [7]: < 10 pM
koff [7]: < 1e-06 s⁻¹
kon [7]: 1.06e+06 M⁻¹ s⁻¹

B7: P1AD9438, anti-FAP clone 212 as huIgG1 P329G LALA (antibody, V domains shown)
VH: EVLLQQSGPELVKPGASVKIACKASGYTLTDYNMDWVRQSHGKSLEWIGDIYPNTGGTIYNQKFKGKATLTIDKSSSTAYMDLRSLTSEDTAVYYCTRFRGIHYAMDYWGQGTSVTVSS
VL: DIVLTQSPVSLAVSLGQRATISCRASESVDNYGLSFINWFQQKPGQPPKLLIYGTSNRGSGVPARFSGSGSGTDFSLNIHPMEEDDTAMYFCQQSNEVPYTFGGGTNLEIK
EC50 [5]: 0.118 µg/mL
EC50 [8]: 0.3 µg/mL
EC50 [9]: 0.12 µg/mL
Kd [10]: 140 pM

Other lines, results leading:

EC50 [3]: 86 pM
B2: P1AE2487, CD40 (P1AE0817) x FAP (4B9) (2+1) C-terminal crossfab fusion (bispecific antibody, human IgG1, kappa, L234A L235A)
light 1: EIVLTQSPGTLSLSPGERATLSCRASQSVTSSYLAWYQQKPGQAPRLLINVGSRRATGIPDRFSGSGSGTDFTLTISRLEPEDFAVYYCQQGIMLPPTFGQGTKVEIKSSASTKGPSVFPLAPSSKSTSGGTAALGCLVKDYFPEPVTVSWNSGALTSGVHTFPAVLQSSGLYSLSSVVTVPSSSLGTQTYICNVNHKPSNTKVDKKVEPKSC
light 2: DIVMTQTPLSLSVTPGQPASISCRSSQSLVHSNGNTFLHWYLQKPGQSPQLLIYTVSNRFSGVPDRFSGSGSGTDFTLKISRVEAEDVGVYFCSQTTHVPWTFGGGTKVEIKRTVAAPSVFIFPPSDEQLKSGTASVVCLLNNFYPREAKVQWKVDNALQSGNSQESVTEQDSKDSTYSLSSTLTLSKADYEKHKVYACEVTHQGLSSPVTKSFNRGEC
heavy 1: not shown
heavy 2: QVQLVQSGAEVKKPGASVKVSCKASGYSFTGYYIHWVRQAPGQSLEWMGRVIPNAGGTSYNQKFKGRVTLTVDKSISTAYMELSRLRSDDTAVYYCAREGIYWWGQGTTVTVSSASTKGPSVFPLAPSSKSTSGGTAALGCLVKDYFPEPVTVSWNSGALTSGVHTFPAVLQSSGLYSLSSVVTVPSSSLGTQTYICNVNHKPSNTKVDKKVEPKSCDKTHTCPPCPAPEAAGGPSVFLFPPKPKDTLMISRTPEVTCVVVDVSHEDPEVKFNWYVDGVEVHNAKTKPREEQYNSTYRVVSVLTVLHQDWLNGKEYKCKVSNKALGAPIEKTISKAKGQPREPQVCTLPPSRDELTKNQVSLSCAVKGFYPSDIAVEWESNGQPENNYKTTPPVLDSDGSFFLVSKLTVDKSRWQQGNVFSCSVMHEALHNHYTQKSLSLSPG
notes: bivalent for CD40, monovalent for FAP; also called CD40 x FAP (4B9) 2+1 crossfab

EC50 [5]: 0.089 µg/mL
B4: anti-FAP antibody 4B9 (antibody, V domains shown)
VH: EVQLLESGGGLVQPGGSLRLSCAASGFTFSSYAMSWVRQAPGKGLEWVSAIIGSGASTYYADSVKGRFTISRDNSKNTLYLQMNSLRAEDTAVYYCAKGWFGGFNYWGQGTLVTVSS
VL: EIVLTQSPGTLSLSPGERATLSCRASQSVTSSYLAWYQQKPGQAPRLLINVGSRRATGIPDRFSGSGSGTDFTLTISRLEPEDFAVYYCQQGIMLPPTFGQGTKVEIK

binding result [11]: no binding (tested: 10 µg/ml)
B8: murine anti-human FAP antibody clone 212 (hybridoma-derived) (antibody, IgG1, V domains shown)
VH: EVLLQQSGPELVKPGASVKIACKASGYTLTDYNMDWVRQSHGKSLEWIGDIYPNTGGTIYNQKFKGKATLTIDKSSSTAYMDLRSLTSEDTAVYYCTRFRGIHYAMDYWGQGTSVTVSS
VL: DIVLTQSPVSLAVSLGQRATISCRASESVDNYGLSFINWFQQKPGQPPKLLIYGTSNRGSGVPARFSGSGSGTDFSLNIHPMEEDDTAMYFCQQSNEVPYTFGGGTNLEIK
notes: mu IgG1
